Residue numbers refer to the chain shown, from its start.
T1: mouse TREM2 on BWZ cells (mouse, UniProt Q99NH8 19-227)
T1 construct: whole, on cells; also called BWZ Mouse TREM2
T1 sequence (looked up): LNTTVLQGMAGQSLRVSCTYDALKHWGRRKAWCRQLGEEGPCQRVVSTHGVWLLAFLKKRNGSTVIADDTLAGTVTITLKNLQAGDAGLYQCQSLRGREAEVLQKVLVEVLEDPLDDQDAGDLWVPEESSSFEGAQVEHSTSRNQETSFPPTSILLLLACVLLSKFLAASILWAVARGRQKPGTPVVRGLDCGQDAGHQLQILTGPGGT

T2: human TREM2 on BWZ cells (human, UniProt Q9NZC2 19-230)
T2 construct: whole, on cells; not tied to the cell line; also called BWZ Human TREM2
T2 sequence (looked up): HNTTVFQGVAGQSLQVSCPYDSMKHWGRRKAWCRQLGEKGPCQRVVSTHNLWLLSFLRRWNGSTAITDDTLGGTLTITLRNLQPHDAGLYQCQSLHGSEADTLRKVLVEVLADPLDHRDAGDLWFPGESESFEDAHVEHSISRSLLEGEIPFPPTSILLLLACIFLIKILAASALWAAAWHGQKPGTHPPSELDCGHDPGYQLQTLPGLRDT

B1: T1-49 (antibody, IgG1, V domains shown)
VH: QVQLVQSGAEVKKPGASVKVSCKASGYTFTSYYMHWVRQAPGQGLEWMGIINPSGGSTSYAQKFQGRVTMTRDTSTSTVYMELSSLRSEDTAVYYCAREAGSWLISTAFDIWGQGTMVTVSS
VL: not shown
notes: huIgG1; also called TI-49; ADI-19122
B2: T1-35 (antibody, IgG1, V domains shown)
VH: QVQLVESGGGVVQPGRSLRLSCAASGFTFSSYGMHWVRQAPGKGLEWVAVISYDGSNKYYADSVKGRFTISRDNSKNTLYLQMNSLRAEDTAVYYCARPDYYSSRGVFDIWGQGTMVTVSS
VL: not shown
notes: huIgG1; also called TI-35; ADI-19109
B3: T1-36 (antibody, IgG1, V domains shown)
VH: B2 VH
VL: not shown
notes: huIgG1; also called TI-36; ADI-19110
B4: T1-50 (antibody, IgG1, V domains shown)
VH: QVQLVQSGAEVKKPGASVKVSCKASGYTFTSYYMHWVRQAPGQGLEWMGIINPGGGSTSYAQKFQGRVTMTRDTSTSTVYMELSSLRSEDTAVYYCAREAGTMSSAFDIWGQGTMVTVSS
VL: not shown
notes: huIgG1; also called TI-50; ADI-19125
B5: T1-39 (antibody, IgG1, V domains shown)
VH: EVQLVESGGGLVKPGGSLRLSCAASGFTFSSYSMNWVRQAPGKGLEWVSSISSSSNYIYYADSVKGRFTISRDNAKNSLYLQMNSLRAEDTAVYYCARRGGSSSTGLLYWGQGTLVTVSS
VL: DIQLTQSPSSVSASVGDRVTITCRASQDISSWLAWYQQKPGKAPKLLIYAASSLQSGVPSRFSGSGSGTDFTLTISSLQPEDFATYYCQQSLTHPTFGGGTKVEIK
notes: huIgG1; also called TI-39; ADI-19113
B6: T1-42 (antibody, IgG1, V domains shown)
VH: QVQLVESGGGVVQPGRSLRLSCAASGFTFSSYGMHWVRQAPGKGLEWVAVIWYDGSNKGYADSVKGRFTISRDNSKNTLYLQMNSLRAEDTAVYYCARELMVTSGGWLYGMDVWGQGTTVTVSS
VL: EIVMTQSPATLSVSPGERATLSCRASQSVSSNLAWYQQKPGQAPRLLIYGASTRATGIPARFSGSGSGTEFTLTISSLQSEDFAVYYCQQYNVHPPRTFGGGTKVEIK
notes: huIgG1; also called TI-42; ADI-19116
B7: T1-37 (antibody, IgG1, V domains shown)
VH: QVQLVESGGGVVQPGRSLRLSCAASGFTFSSYGMHWVRQAPGKGLEWVALIWYDGSNKYYADSVKGRFTISRDNSKNTLYLQMNSLRAEDTAVYYCAKGDYLDPLFDYWGQGTLVTVSS
VL: EIVMTQSPATLSVSPGERATLSCRASQSVSSNLAWYQQKPGQAPRLLIYGASTRATGIPARFSGSGSGTEFTLTISSLQSEDFAVYYCQQYAYWPLTFGGGTKVEIK
notes: huIgG1; also called TI-37; ADI-19111
B8: T1-9 (antibody, IgG1, V domains shown)
VH: QVQLVQSGAEVKKPGASVKVSCKASGYTFTSYYMHWVRQAPGQGLEWMGIINPSGGSTSYAQKFQGRVTMTRDTSTSTVYMELSSLRSEDTAVYYCAREAGYDISSAFDIWGQGTMVTVSS
VL: not shown
notes: huIgG1; also called TI-9; ADI-19076
B9: T1-6 (antibody, IgG1, V domains shown)
VH: B8 VH with I50V, A100S, Y102H, D103S, I104Y, S105V, A107S, I110P, M116L
VL: not shown
notes: huIgG1; also called TI-6; ADI-19072
B10: T1-53 (antibody, IgG1, V domains shown)
VH: B8 VH with M34I, A100S, D103H, I104V, S106T
VL: not shown
notes: huIgG1; also called TI-53; ADI-19128
B11: T1-58 (antibody, IgG1, V domains shown)
VH: QLQLQESGPGLVKPSETLSLTCTVSGGSISSSSYYWGWIRQPPGKGLEWIGSIYYSGSTYYNPSLKSRVTISVDTSKNQFSLKLSSVTAADTAVYYCARQEYGDGYFDLWGRGTLVTVSS
VL: not shown
notes: huIgG1; also called TI-58; ADI-19133
B12: T1-40 (antibody, IgG1, V domains shown)
VH: EVQLVESGGGLVKPGGSLRLSCAASGFTFSSYSMNWVRQAPGKGLEWVSSISSSSSYIYYADSVKGRFTISRDNAKNSLYLQMNSLRAEDTAVYYCARTRIDDSFDIWGQGTMVTVSS
VL: not shown
notes: huIgG1; also called TI-40; ADI-19114
B13: T1-52 (antibody, IgG1, V domains shown)
VH: QVQLVQSGAEVKKPGSSVKVSCKASGGTFSSYAISWVRQAPGQGLEWMGSIIPIFGTANYAQKFQGRVTITADESTSTAYMELSSLRSEDTAVYYCARDRGQYSSSWYGRMDVWGQGTTVTVSS
VL: DIQMTQSPSTLSASVGDRVTITCRASQSISSWLAWYQQKPGKAPKLLIYKASSLESGVPSRFSGSGSGTEFTLTISSLQPDDFATYYCQQSSADSPFTFGGGTKVEIK
notes: huIgG1; also called TI-52; ADI-19127
B14: T1-43 (antibody, IgG1, V domains shown)
VH: QVQLVQSGAEVKKPGASVKVSCKASGYTFTSYYMHWVRQAPGQGLEWMGIINPSGGSTSYAQKFQGRVTMTRDTSTSTVYMELSSLRSEDTAVYYCAREAGNYYDIESAFDIWGQGTMVTVSS
VL: not shown
notes: huIgG1; also called TI-43; ADI-19117
B15: T1-41 (antibody, IgG1, V domains shown)
VH: not shown
VL: DIQLTQSPSSVSASVGDRVTITCRASQDISSWLAWYQQKPGKAPKLLIYAASSLQSGVPSRFSGSGSGTDFTLTISSLQPEDFATYYCQQAVIHPPYTFGGGTKVEIK
notes: huIgG1; also called TI-41; ADI-19115
B16: T1-57 (antibody, IgG1, V domains shown)
VH: EVQLVESGGGLVQPGRSLRLSCAASGFTFDDYAMHWVRQAPGKGLEWVSGITWNSGSIGYADSVKGRFTISRDNAKNSLYLQMNSLRAEDTALYYCAKGPRYSKPYFDYWGQGTLVTVSS
VL: DIQMTQSPSSVSASVGDRVTITCRASQGIDSWLAWYQQKPGKAPKLLIYAASSLQSGVPSRFSGSGSGTDFTLTISSLQPEDFATYYCQQRAVFPPTFGGGTKVEIK
notes: huIgG1; also called TI-57; ADI-19132
B17: T1-44 (antibody, IgG1, V domains shown)
VH: QVQLVQSGAEVKKPGASVKVSCKASGYTFTSYYMHWVRQAPGQGLEWMGVINPSGGSTSYAQKFQGRVTMTRDTSTSTVYMELSSLRSEDTAVYYCAREGSGYDESMDVWGQGTTVTVSS
VL: not shown
notes: huIgG1; also called TI-44; ADI-19119
B18: T1-10 (antibody, IgG1, V domains shown)
VH: B17 VH with V50I, Y103S, D104W, S106T, M107L, T115M
VL: not shown
notes: huIgG1; also called TI-10; ADI-19077
B19: T1-8 (antibody, IgG1, V domains shown)
VH: B17 VH with V50I, G100V, G102M, Y103T, D104A, E105A, M107L, T115M
VL: not shown
notes: huIgG1; also called TI-8; ADI-19074
B20: T1-48 (antibody, IgG1, V domains shown)
VH: B4 VH with I50V, T102Q, M103T, F107L, I109V
VL: not shown
notes: huIgG1; also called TI-48; ADI-19121
B21: T1-45 (antibody, IgG1, V domains shown)
VH: B17 VH
VL: not shown
notes: huIgG1; also called TI-45; ADI-19123
B22: T1-46 (antibody, IgG1, V domains shown)
VH: B17 VH
VL: not shown
notes: huIgG1; also called TI-46; ADI-19124
B23: T1-18 (antibody, IgG1, V domains shown)
VH: EVQLVESGGGLVQPGRSLRLSCAASGFTFDDYAMHWVRQAPGKGLEWVSGISWNSGDIGYADSVKGRFTISRDNAKNTLYLQMNSLRAEDTALYYCAKGPRMVTHLDVWGQGTMVTVSS
VL: DIQMTQSPSTLSASVGDRVTITCRASQSISSWLAWYQQKPGKAPKLLIYKASSLESGVPSRFSGSGSGTEFTLTISSLQPDDFATYYCQQDSIYPITFGGGTKVEIK
notes: huIgG1; also called TI-18; ADI-19085
B24: T1-56 (antibody, IgG1, V domains shown)
VH: B23 VH with D57S, T78S, M102L, V103L, T104G, H105Y, L106F, V108L, Q111R, M114L
VL: not shown
notes: huIgG1; also called TI-56; ADI-19131
B25: T1-51 (antibody, IgG1, V domains shown)
VH: QVQLVQSGAEVKKPGSSVKVSCKASGGTFSSYAISWVRQAPGQGLEWMGSIIPIFGTANYAQKFQGRVTITADESTSTAYMELSSLRSEDTAVYYCARSGGYSSSWYGTGYDYWGQGTLVTVSS
VL: B23 VL with D91F, S92Q, I93S, I96F
notes: huIgG1; also called TI-51; ADI-19126
B26: T1-55 (antibody, IgG1, V domains shown)
VH: QVQLVQSGAEVKKPGASVKVSCKASGYTFTSYYMHWVRQAPGQGLEWMGVINPSGGSTSYAQKFQGRVTMTRDTSTSTVYMELSSLRSEDTAVYYCARGADYYAGFDYWGQGTLVTVSS
VL: not shown
notes: huIgG1; also called TI-55; ADI-19130
B27: T1-38 (antibody, IgG1, V domains shown)
VH: QVQLVESGGGVVQPGRSLRLSCAASGLTFSSYGMHWVRQAPGKGLEWVAVISYDGSNKYYADSVKGRFTISRDNSKNTLYLQMNSLRAEDTAVYYCARERGTYYYASGWANWGQGTLVTVSS
VL: not shown
notes: huIgG1; also called TI-38; ADI-19112

How the values were obtained:
[1] = target: T1, mouse TREM2 on BWZ cells; experiment: FACS, BWZ cells
[2] = target: T2, human TREM2 on BWZ cells; experiment: FACS, BWZ cells

| Binder | binding result [1] | binding result [2] |
| --- | --- | --- |
| B1 | no binding |  |
| B2 | no binding | no binding |
| B3 | no binding | no binding |
| B4 | no binding | no binding |
| B5 | no binding | no binding |
| B6 | no binding | no binding |
| B7 | no binding | no binding |
| B8 | no binding | no binding |
| B9 | no binding | no binding |
| B10 | no binding | no binding |
| B11 |  | no binding |
| B12 | no binding | no binding |
| B13 | no binding | no binding |
| B14 | no binding | no binding |
| B15 | no binding | no binding |
| B16 | no binding | no binding |
| B17 | no binding | no binding |
| B18 | no binding | no binding |
| B19 | no binding | no binding |
| B20 | no binding | no binding |
| B21 | no binding | no binding |
| B22 | no binding | no binding |
| B23 | no binding | no binding |
| B24 | no binding | no binding |
| B25 | no binding | no binding |
| B26 | no binding | no binding |
| B27 | no binding | no binding |

Reference: US11472877 (Alector, dated 2022)
